The chains are these.
B1: VRC01 (antibody, V domains shown)
VH: QVQLVQSGGQMKKPGESMRISCRASGYEFIDCTLNWIRLAPGKRPEWMGWLKPRGGAVNYARPLQGRVTMTRDVYSDTAFLELRSLTVDDTAVYFCTRGKNCDYNWDFEHWGRGTPVIVSS
VL: EIVLTQSPGTLSLSPGETAIISCRTSQYGSLAWYQQRPGQAPRLVIYSGSTRAAGIPDRFSGSRWGPDYNLTISNLESGDFGVYYCQQYEFFGQGTKVQVDI
B2: 1842 heavy chain with NC-Cow1 light chain (antibody)
VH: KVQLQESGPSLVKPSQTLSLTCTASGFSLSDKAVGWVRQAPGQALEWLGSIDTGGNADYNPGLKSRLSITKDNAKSQVSLSVSSVTTEGSATYYCSTVHQKTLRSCPSDYPYICDCEDTGSHCCRATNCPYYCNHGRDRMCTGRTYTYEWHVEAWGQGLLVTVSS
VL: HSYELTQPSSVSGSLGQRVSVTCSGSSSNVGNGYVSWYQLIPGSAPRTIIYGDTSRASGVPERFSGSRSGNTATLTISSLQAEDEADFFCASPDDSSSNAVFGSGTTLTVL
B3: 1872 heavy chain with NC-Cow1 light chain (antibody)
VH: KVQLRESGPSLVKPSQTLSLTCTASGFSLSDKAVGWVRQAPGQPLEWLGTIDTTGNAVYNPGLKSRLSITKDNSKSQVSLSLSSVTTEDSATYHCSTVHQKTRRSCPSDYSFICDCEGTGSHCCRASNCPYYCNYGRDRMCTGRSNIHEWHVDAWGQGLLVTVSS
VL: HSYELTQPSSVSGSLGQRVSVTCSGSSSNVGNGYVSWYQLIPGSAPRTIIYGDTSRASGVPERFSGSRSGNTATLTISSLQAEDEADFFCASPDDSSSNAVFGSGTTLTVL

For this test, the target named is AD8 WT Env (gp160, from lysed pseudovirions / on pseudovirus) (HIV-1 AD8, clade B). Description: cell-based or functional assay.
For B1, the “IC50 (read off the curve); axis Neutralisation (%), panel AD8” value is approximately 300 ng/mL.
The result for B2 reads approximately 5 ng/mL.
As for B3, the “IC50 (read off the curve); axis Neutralisation (%), panel AD8” value was approximately 7 ng/mL.

These data come from patent US20230272048A1 (UNIVERSITY OF MELBOURNE, published 2023).
